These results are taken from PMC12746075, “Twinfilin modulates tissue contractility through uncapping of capping protein in C. elegans” (Development (Cambridge, England), 2025).

The experiment has as its target T1, biotinylated SNAP-tagged C. elegans heterodimeric capping protein (CAP-1 and CAP-2) (C. elegans, UniProt P34685 1-282; P34686 1-270, biotin (benzylguanine-biotin on the SNAP tag; subunit that carries the tag not stated) | biotin (benzylguanine-biotin on the SNAP tag; subunit that carries the tag not stated)).
T1 construct: CAP-1, capping protein subunit of C. elegans; CAP-2, capping protein subunit of C. elegans; only one SNAP tag is meant for the heterodimer; also called CP; SNAP-CP; source: E. coli BL21 DE3, purified (HisTrap, size-exclusion chromatography Superose 6), labeled with benzylguanine-biotin; not shown: His tag (from the HisTrap chromatography)
T1 sequence (looked up) 1: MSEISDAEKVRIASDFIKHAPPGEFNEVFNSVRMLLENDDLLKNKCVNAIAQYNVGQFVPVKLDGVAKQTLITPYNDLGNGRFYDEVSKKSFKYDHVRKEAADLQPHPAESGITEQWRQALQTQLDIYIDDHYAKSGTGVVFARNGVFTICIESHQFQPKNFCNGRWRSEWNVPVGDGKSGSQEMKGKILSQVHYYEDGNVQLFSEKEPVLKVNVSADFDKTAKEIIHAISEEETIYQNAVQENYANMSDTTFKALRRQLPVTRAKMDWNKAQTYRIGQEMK
T1 sequence (looked up) 2: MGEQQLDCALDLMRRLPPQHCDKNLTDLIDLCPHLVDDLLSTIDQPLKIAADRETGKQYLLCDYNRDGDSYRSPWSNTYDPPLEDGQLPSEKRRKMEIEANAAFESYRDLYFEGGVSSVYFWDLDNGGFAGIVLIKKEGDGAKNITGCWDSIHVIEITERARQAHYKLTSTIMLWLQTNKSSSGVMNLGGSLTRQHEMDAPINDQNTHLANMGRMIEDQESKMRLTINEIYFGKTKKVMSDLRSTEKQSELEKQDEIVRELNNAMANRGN
Description: microfluidics-assisted TIRF microscopy (filament capture and uncapping); biotinylated SNAP-CP anchored to the coverslip surface, preformed Alexa-488-labeled ADP-actin filaments captured; filament detachment monitored in TIRF buffer (10 mM imidazole pH 7.4, 50 mM KCl, 1 mM MgCl2, 1 mM EGTA, 0.2 mM ATP, 10 mM DTT) with and without TWF-2; single-exponential fit. The following applies: both partners purified.

B1: C. elegans TWF-2 (6×His-tagged), recombinant (natural protein, UniProt Q20173 1-333, looked up)
chain: MACQTGIRANAALRNALNLGKQAKLRLIKIVVNNEEMTPNYEFAGTANWRDDWRACLPDCVDAYEPCFILFRLNTITEWVLITFVDDRAPVREKMLLAATCATFKSEFGQCYIEHEKHVTDLKDLTLNAFEAWLKAKTELGPMSEVERELHNAQQERAAIAHAGPQHMKGVAFPVDRNAEEALRQLASQKLSFVQLSVDTLNEAIKLEGTLESLEPSQLASKVPRDKPRYTFYNFDHTWEGVPQQCTLFIYSLPSSGSSIKERMLYSSCKGPFLSAAQNQYGVVITNKMEVDARDDLSEKALLEVIHPLPVEAPKQFSRPAPPRAGPRRITKV
notes: TWF-2, the sole twinfilin of C. elegans, recombinant; also called twinfilin; source: E. coli BL21 (pRare), purified (Ni-NTA, size-exclusion chromatography Superdex 75 Increase)
As to B1, the “fold acceleration of uncapping of CP from barbed ends (against buffer)” value was above 90 fold.
